Reference: patent US20180030119A1

How the values were obtained:
[1] = molecular target: F protein on intact RSV particles (Example 11, strain not stated) (RSV, strain not stated); experiment: competition ELISA: RSV particles pre-incubated with inhibiting mAb at 20 ug/mL, then added to plates coated with AR201 (competitor)
[2] = molecular target: F protein on intact RSV particles (Example 11, strain not stated) (RSV, strain not stated); experiment: competition ELISA: RSV particles pre-incubated with inhibiting mAb at 20 ug/mL, then added to plates coated with palivizumab (competitor, self)
[3] = molecular target: F protein of RSV reference strain RSV-B (ATCC VR 1580), on virus (RSV-B (ATCC VR 1580)) (UniProt P13843); experiment: cell-based or functional assay
F protein of RSV reference strain RSV-B (ATCC VR 1580), on virus (RSV-B (ATCC VR 1580)), sequence (P13843 26-574): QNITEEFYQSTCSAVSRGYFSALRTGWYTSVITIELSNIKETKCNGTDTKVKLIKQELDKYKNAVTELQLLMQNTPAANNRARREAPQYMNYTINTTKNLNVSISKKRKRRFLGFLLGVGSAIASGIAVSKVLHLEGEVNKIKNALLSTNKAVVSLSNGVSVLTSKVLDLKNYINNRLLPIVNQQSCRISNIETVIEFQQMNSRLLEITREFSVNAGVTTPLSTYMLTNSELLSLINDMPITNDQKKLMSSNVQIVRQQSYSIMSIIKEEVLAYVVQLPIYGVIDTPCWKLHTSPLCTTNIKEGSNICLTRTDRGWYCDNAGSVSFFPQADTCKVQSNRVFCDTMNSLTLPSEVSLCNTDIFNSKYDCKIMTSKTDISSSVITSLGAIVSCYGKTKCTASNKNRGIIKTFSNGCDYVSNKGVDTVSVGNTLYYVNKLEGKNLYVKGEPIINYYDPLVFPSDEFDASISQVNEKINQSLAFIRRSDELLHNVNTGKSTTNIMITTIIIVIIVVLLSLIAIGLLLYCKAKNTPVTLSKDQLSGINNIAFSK

[4] = molecular target: F protein of RSV reference strain RSV-A Long (ATCC VR-26), on virus (RSV-A Long (ATCC VR-26)) (UniProt P12568); experiment: cell-based or functional assay
F protein of RSV reference strain RSV-A Long (ATCC VR-26), on virus (RSV-A Long (ATCC VR-26)), sequence (P12568 26-574): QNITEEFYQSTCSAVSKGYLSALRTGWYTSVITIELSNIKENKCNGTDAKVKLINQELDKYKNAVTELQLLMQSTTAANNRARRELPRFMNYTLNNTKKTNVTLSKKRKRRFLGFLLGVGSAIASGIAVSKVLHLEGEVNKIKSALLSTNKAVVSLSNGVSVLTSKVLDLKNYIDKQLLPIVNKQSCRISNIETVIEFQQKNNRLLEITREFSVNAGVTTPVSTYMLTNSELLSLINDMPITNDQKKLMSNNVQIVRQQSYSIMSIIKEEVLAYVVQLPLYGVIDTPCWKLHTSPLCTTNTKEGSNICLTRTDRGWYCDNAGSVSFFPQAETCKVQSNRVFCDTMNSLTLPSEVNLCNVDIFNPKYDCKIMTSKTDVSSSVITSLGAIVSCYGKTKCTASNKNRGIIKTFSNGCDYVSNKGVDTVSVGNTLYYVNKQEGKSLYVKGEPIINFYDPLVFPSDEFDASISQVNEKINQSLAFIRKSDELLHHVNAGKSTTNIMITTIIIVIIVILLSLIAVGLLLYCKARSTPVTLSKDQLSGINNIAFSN

[5] = molecular target: F protein on intact RSV particles (Example 11, strain not stated) (RSV, strain not stated); experiment: competition ELISA: RSV particles pre-incubated with control IgG at 20 ug/mL, plates coated with palivizumab; this is the reference set to 100 %
[6] = molecular target: F protein on intact RSV particles (Example 11, strain not stated) (RSV, strain not stated); experiment: competition ELISA: RSV particles pre-incubated with control IgG at 20 ug/mL, plates coated with AR201; this is the reference set to 100 %

Row | Substance | binding of RSV to the coated mAb, % of binding with control IgG [1] [%] | binding of RSV to the coated mAb, % of binding with control IgG [2] [%] | Estimated half-maximal effective antibody concentration (ng/mL), plaque neutralisation on Vero cells [3] [ng/mL] | Estimated half-maximal effective antibody concentration (ng/mL), plaque neutralisation on Vero cells [4] [ng/mL] | binding of RSV to the coated mAb, % of binding with control IgG [5] [%] | binding of RSV to the coated mAb, % of binding with control IgG [6] [%]
1 | palivizumab (antibody) | 29.2 | 35.3 | 200 | 100 | – | –
2 | unrelated fully human monoclonal IgG1 antibody (control) | – | – | > 1000 | > 1000 | 100 | 100
